The supplement of paper PMC7877785
± gives the uncertainty stated by the source.

Assay: self-splicing fitness, log relative to wild type (ln ratio); higher = more splicing; Tetrahymena group I intron in knt gene, E. coli kanamycin selection, DiMSum; sequences stand for … in CUCUCU…GGAGGGAAAAGUUAUCAGGCAUGCACCUGGUAGCUAGUCUUUAAACCAAUAGAUUGCAUCGGUUUAAAAGGCAAGACCGUCAAAUUGCGGGAAAGGGGUCAACAGCCGUUCAGUACCAAGUCUCAGGGGAAACUUUGAGAUGGCCUUGCAAAGGGUAUGGUAAUAAGCUGACGGACAUGGUCCUAACCACGCAGCCAAGUCCUAAGUCAACAGAUCUUCUGUUGAUAUGGAUGCAGUUCACAGACUAAAUGUCGGUCGGGGAAGAUGUAUUCUUCUCAUAAGAUAUAGUCGGACCUCUCCUUAAUGGGAGCUAGCGGAUGAAGUGAUGCAACACUGGAGCCGCUGGGAACUAAUUUGUAUGCGAAAGUAUAUUGAUUAGUUUUGGAGUACUCGUGGUCG
How it was run: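 Six replicate transformations of E. coli BL21(DE3) with a pET-22b(+) library were grown overnight at 37°C or 30°C. The library randomised all eight P1ex-region intron nucleotides, the intron lying in the knt kanamycin-resistance gene, and plates were LB agar with or without 25 μg/mL kanamycin plus 100 μg/mL carbenicillin, 50 μM IPTG and 0.2% rhamnose. Pooled colonies were amplicon-sequenced on an Illumina HiSeq 2500, and fitness is the DiMSum error-weighted combination of wild-type-normalised replicate fold changes, kanamycin versus none.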

Sequence	self-splicing fitness (ln) (30 °C)	self-splicing fitness (ln) (37 °C)
CGAUAGCAAUAUUACGCCCU	-0.983 ± 0.2	0.695 ± 0.25
ACAUAGCAAUAUUACGCGUU	-3.55 ± 0.24	-2.39 ± 0.15
CAGCAGCAAUAUUACGUACG	-0.121 ± 0.08	0.866 ± 0.11
CCGGAGCAAUAUUACGAAAG	-2.31 ± 0.11	-1.05 ± 0.12
GGUUAGCAAUAUUACGAAUA	-1.94 ± 0.19	-1.85 ± 0.26
UGGUAGCAAUAUUACGGUAU	-3.64 ± 0.32	-1.87 ± 0.4
AUAGAGCAAUAUUACGUGUG	-1.61 ± 0.1	-2.39 ± 0.2
ACGUAGCAAUAUUACGUUCC	-3.29 ± 0.24	-2.04 ± 0.23
GCUCAGCAAUAUUACGUUAA	-1.32 ± 0.17	-1.28 ± 0.16
CGCAAGCAAUAUUACGAAUC	-4.8 ± 0.38	-1.29 ± 0.18
GUUAAGCAAUAUUACGGCGU	-0.0268 ± 0.076	-0.00868 ± 0.094
AUUAAGCAAUAUUACGACAC	-0.804 ± 0.13	-0.46 ± 0.14
UCUCAGCAAUAUUACGUGAU	-4.03 ± 0.21	-1.85 ± 0.13
GUGCAGCAAUAUUACGGAUG	-2.72 ± 0.29	-1.74 ± 0.25
UGGAAGCAAUAUUACGGAGA	-2.7 ± 0.22	-1.31 ± 0.13
AACAAGCAAUAUUACGGUAA	-1.83 ± 0.1	-1.04 ± 0.096
CAACAGCAAUAUUACGUAAU	-2.46 ± 0.08	-2 ± 0.12
CUUAAGCAAUAUUACGGAGA	-2.45 ± 0.24	-2.31 ± 0.29
CGCCAGCAAUAUUACGGCCC	-2.2 ± 0.12	-0.207 ± 0.25
GAAUAGCAAUAUUACGCAUG	-0.0618 ± 0.089	-0.902 ± 0.091
AGCGAGCAAUAUUACGAUUU	-1.4 ± 0.1	-0.548 ± 0.14
UUAAAGCAAUAUUACGAGCU	-0.888 ± 0.073	-0.532 ± 0.1
GACCAGCAAUAUUACGAGAU	-2.62 ± 0.12	-1.05 ± 0.084
CGAUAGCAAUAUUACGGCUA	-3.24 ± 0.49	-1.08 ± 0.17
CAAGAGCAAUAUUACGUGUU	-3.47 ± 0.15	-3.58 ± 0.26

Sequence	self-splicing fitness (ln) (30 °C)	self-splicing fitness (ln) (37 °C)
UGUGAGCAAUAUUACGCCUU	-2.28 ± 0.4	
AAGAAGCAAUAUUACGAAAU	-1.98 ± 0.17	-2.03 ± 0.19
AGUUAGCAAUAUUACGUCAU	-2.48 ± 0.1	-1.81 ± 0.13
UCCAAGCAAUAUUACGUUAC	-4.16 ± 0.26	-3.2 ± 0.32
CCACAGCAAUAUUACGAUAU	-3.48 ± 0.2	-2.01 ± 0.15
AAGGAGCAAUAUUACGUAGG	-3.12 ± 0.22	-2.02 ± 0.44
AAUAAGCAAUAUUACGUGAU	-2.97 ± 0.14	-1.23 ± 0.12
GUUCAGCAAUAUUACGGACA	-1.59 ± 0.18	-1.02 ± 0.16
AGGGAGCAAUAUUACGUUAG	-3.02 ± 0.2	-3.66 ± 0.37
AACAAGCAAUAUUACGAACA	-1.16 ± 0.11	-0.392 ± 0.11
UCUUAGCAAUAUUACGACUG	-2.53 ± 0.23	-1.69 ± 0.23
AUUUAGCAAUAUUACGAACC	-2.12 ± 0.19	-0.169 ± 0.21
ACUUAGCAAUAUUACGAUCG	-1.4 ± 0.11	-1.23 ± 0.14
AUGUAGCAAUAUUACGAAAG	-2.59 ± 0.23	-2.2 ± 0.26
ACCUAGCAAUAUUACGGUCG	-3.53 ± 0.17	-2.11 ± 0.14
CGUUAGCAAUAUUACGGGAC	-2.68 ± 0.34	-3.7 ± 0.39
UAGAAGCAAUAUUACGGAAA	-2.02 ± 0.17	-1.41 ± 0.24
GAUGAGCAAUAUUACGUCAC	-3.62 ± 0.4	-2.47 ± 0.26
GUCUAGCAAUAUUACGCGCU	-1.29 ± 0.19	-0.353 ± 0.15
AUCCAGCAAUAUUACGGUGU	-1.07 ± 0.062	-0.834 ± 0.079
UCCAAGCAAUAUUACGCGAA	-2.43 ± 0.13	-0.748 ± 0.12
GCGGAGCAAUAUUACGAACG	-3.06 ± 0.29	-2.41 ± 0.23
AACAAGCAAUAUUACGCGAG	-1.58 ± 0.072	-0.559 ± 0.067
GGCAAGCAAUAUUACGCCCG	-2.21 ± 0.45	
AGGGAGCAAUAUUACGUAGU	-3.35 ± 0.23	-2.19 ± 0.35

Sequence	self-splicing fitness (ln) (30 °C)	self-splicing fitness (ln) (37 °C)
CAAAAGCAAUAUUACGGACG	-0.163 ± 0.059	0.223 ± 0.079
GUGUAGCAAUAUUACGGUAG		-1.58 ± 0.23
UGAUAGCAAUAUUACGAGGA	-3.09 ± 0.3	-2.82 ± 0.48
AUCAAGCAAUAUUACGGGGU	-3.94 ± 0.2	-2.48 ± 0.15
UGGCAGCAAUAUUACGACCA	-0.399 ± 0.2	-0.654 ± 0.2
GCCGAGCAAUAUUACGGAGG	-3.45 ± 0.18	-2.1 ± 0.21
GUUGAGCAAUAUUACGCUAC	-1.28 ± 0.49	
GAAAAGCAAUAUUACGGCUG	-0.13 ± 0.091	0.108 ± 0.14
UUGUAGCAAUAUUACGAGGU	-2.82 ± 0.2	-2.61 ± 0.36
UCUUAGCAAUAUUACGCUUG	-2.43 ± 0.24	-1.89 ± 0.23
UGAGAGCAAUAUUACGGCAU	-2.88 ± 0.23	-2.85 ± 0.33
GAUAAGCAAUAUUACGUCUC	-1.74 ± 0.085	-0.95 ± 0.1
CGAGAGCAAUAUUACGUUAC	-4.23 ± 0.28	-2.29 ± 0.24
GAUUAGCAAUAUUACGGUGC	-1.8 ± 0.34	-1.4 ± 0.32
AGUUAGCAAUAUUACGGCCC	-0.803 ± 0.33	
GCUUAGCAAUAUUACGGAGU	-2.9 ± 0.26	-0.418 ± 0.19
CAGAAGCAAUAUUACGCGGC	-0.924 ± 0.15	
UGGAAGCAAUAUUACGCGAC	-2.77 ± 0.37	
UUAAAGCAAUAUUACGCCUC	-2.29 ± 0.19	-1.43 ± 0.24
GAUAAGCAAUAUUACGCUCA	-1 ± 0.07	0.0635 ± 0.097
CAAUAGCAAUAUUACGGUCU	-3.24 ± 0.31	-3.15 ± 0.35
CUACAGCAAUAUUACGGUUA	-0.432 ± 0.092	0.11 ± 0.1
CUAGAGCAAUAUUACGCGGC	-0.707 ± 0.19	0.756 ± 0.2
UUGGAGCAAUAUUACGAGCA	-3.18 ± 0.37	-1.74 ± 0.31
CCCGAGCAAUAUUACGGACC	-3 ± 0.28	

Sequence	self-splicing fitness (ln) (30 °C)	self-splicing fitness (ln) (37 °C)
AGAAAGCAAUAUUACGGGGU	-3.8 ± 0.22	-2.34 ± 0.23
CGUAAGCAAUAUUACGAUUU	-2.66 ± 0.14	-1.58 ± 0.12
ACUGAGCAAUAUUACGGGGU	-2.72 ± 0.14	-3.13 ± 0.28
GUCCAGCAAUAUUACGCGUG	-1.04 ± 0.063	-0.469 ± 0.068
AGCCAGCAAUAUUACGAAUA	-3.25 ± 0.27	-2.94 ± 0.3
AGAUAGCAAUAUUACGACUU	-0.125 ± 0.065	-0.304 ± 0.086
AAAGAGCAAUAUUACGGGGG	-2.5 ± 0.34	-2.31 ± 0.39
AGUCAGCAAUAUUACGAGGG	-4.73 ± 0.31	-3.06 ± 0.25
GCGUAGCAAUAUUACGUUCC		-2.36 ± 0.49
GAGGAGCAAUAUUACGUGAA	-2.45 ± 0.3	-1.74 ± 0.3
CGUCAGCAAUAUUACGGGGC	-2.73 ± 0.2	-3.05 ± 0.32
CGAGAGCAAUAUUACGAGGU	-3.16 ± 0.21	-2.02 ± 0.22
AUUUAGCAAUAUUACGCAGC	-2.71 ± 0.35	-1.68 ± 0.43
CGCGAGCAAUAUUACGCCUA		-2.42 ± 0.45
GCCAAGCAAUAUUACGAGCC	-3.51 ± 0.43	-1.99 ± 0.43
GAUGAGCAAUAUUACGAGCA	-2.59 ± 0.37	
CCCUAGCAAUAUUACGAUAG	-2.74 ± 0.2	-2.39 ± 0.27
AAAAAGCAAUAUUACGAUCC	-0.549 ± 0.12	0.153 ± 0.18
GGAAAGCAAUAUUACGUAGG	-3.23 ± 0.12	-2.23 ± 0.14
GACGAGCAAUAUUACGAACG	-0.929 ± 0.34	
UUUGAGCAAUAUUACGCAAC		-1.71 ± 0.26
GUUAAGCAAUAUUACGCUCG	-0.539 ± 0.13	0.0474 ± 0.16
AAUGAGCAAUAUUACGAAGU		-2.16 ± 0.33
GCAGAGCAAUAUUACGAUUC	-2.56 ± 0.26	-0.2 ± 0.22
